According to patent US7985736B2, “High throughput screen utilizing newly discovered intramolecular neuronal calcium channel interactions to discover new analgesics” (The John Hopkins University, priority 2004, dated 2011):
Values joined by “and” are separate entries in the source; they are usually repeats but may differ in a detail not shown here. Equal entries are not always repeated.

Assays:
I-II loop of α1B (I-IIB) = molecular target: T1, I-II loop of α1B (I-IIB) (Homo sapiens, UniProt Q00975); assay: Yeast two-hybrid assay, NT peptides versus I-IIB; format: binding; conditions: NT segment in pGBKT7, I-IIB in pGADT7
T1 construct: I-IIB(357-482)-pGADT7 & lam-pGBKT7; expressed in transfected cells; host or cells: AH109 yeast
T1 sequence (Q00975 357-482): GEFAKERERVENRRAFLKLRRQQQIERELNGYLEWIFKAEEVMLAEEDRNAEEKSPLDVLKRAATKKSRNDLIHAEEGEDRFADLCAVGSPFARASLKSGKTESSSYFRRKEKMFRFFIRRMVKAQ
From the text: (§1) For yeast two-hybrid assays, a PCR fragment encoding one partner was fused, in-frame, with the GAL4 DNA binding domain (BD) in pGBKT7 (Clontech, Palo Alto, Calif.). The other element was fused, in-frame, with the GAL4 activation domain (AD) in pGADT7. For specific residues, see Supplemental Data (section 2). For electrophysiology, NT peptides lacking fluorophore tag were PCR amplified and cloned in pcDNA3. NTB peptide residues, 1-95; NTC residues, […]. Throughout, all segments subject to PCR or QuikChange were verified in their entirety by sequencing.
The Matchmaker GAL4 Two-Hybrid System 3 was used (Clontech, Palo Alto, Calif.). AH109 yeast were transformed with pGBKT7/pGADT7-based constructs (Yeastmaker Yeast Transformation System 2 kit, Clontech). After 5-8 days, growth on -leucine/-trytophan plates confirmed transformation of both plasmids. If partners interact, GAL4 BD/AD would complex, activating reporter genes (HIS3, ADE2, lacZ, and MEL1), for which assays are detailed in the Supplemental Data (section 2.1).
As a ‘medium’ stringency assay, expression of the lacZ gene was tested for encoding β-galactosidase, performing a filter lift with application of blue chromogenic substrate (Clontech-Laboratories, 1999). After the filter lift, original plates were re-grown for 2-3 days at 30° C. Filter paper was then used to replicate colonies onto a high stringency plate (-adenine/-histidine/-leucine/-trytophan). These plates were then incubated at 30° C. for 5-8 days. Survival on high stringency plates indicates production of both adenine and histidine, from transcription of the ADE2 and HIS3 genes, respectively. The percentage of colonies that turned blue in the filter lift assay, along with the percentage of colonies that survived on high stringency plates, was recorded for each pairing. Experiments were repeated at least three times. False positives were controlled for by testing each segment in pGBKT7 against empty pGADT7, and each segment in pGADT7 against lamin C in pGBKT7 (lamin C interacts with few proteins). Average sum of these backgrounds was subtracted from B to produce the net interaction parameter ΔB (FIG. 2).

I-II loop of α1C (I-IIC) = molecular target: T2, I-II loop of α1C (I-IIC) (Oryctolagus cuniculus, UniProt P15381); assay: Yeast two-hybrid assay, NT peptides versus I-IIC; format: binding, rabbit; conditions: NT segment in pGBKT7, I-IIC in pGADT7
T2 construct: I-IIC (436-554)/pGBKT7; expressed in transfected cells; host or cells: AH109 yeast
T2 sequence (P15381 436-554): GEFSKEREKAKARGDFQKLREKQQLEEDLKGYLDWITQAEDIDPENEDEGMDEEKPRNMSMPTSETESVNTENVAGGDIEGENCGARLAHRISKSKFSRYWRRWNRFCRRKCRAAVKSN
From the text: as §1
The Matchmaker GAL4 Two-Hybrid System 3 was used (Clontech, Palo Alto, Calif.). AH109 yeast were transformed with pGBKT7/pGADT7-based constructs (Yeastmaker Yeast Transformation System 2 kit, Clontech). After 5-8 days, growth on -leucine/-trytophan plates confirmed transformation of both plasmids. […]
As a ‘medium’ stringency assay, expression of the lacZ gene was tested for encoding β-galactosidase, performing a filter lift with application of blue chromogenic substrate (Clontech-Laboratories, 1999). […] The percentage of colonies that turned blue in the filter lift assay, along with the percentage of colonies that survived on high stringency plates, was recorded for each pairing. […]

[1] = molecular target: T3, N-type (α1B) Ca2+ channels (Homo sapiens, UniProt Q00975); assay: Whole-cell G/Q analysis and prepulse facilitation of recombinant N-type channels coexpressed with peptide in HEK293 cells; format: cell-based; conditions: for Effect on G/Q slope (Gmax-Qmax relation), with Gβγ: peptide coexpressed with channels and Gβγ, Gmax after 100 mV prepulse
T3 construct: transferred by EcoRI and Bgl II sites into the full-length α1B construct; expressed in transfected cells; host or cells: HEK293
T3 sequence (Q00975 whole entry, other chains not shown): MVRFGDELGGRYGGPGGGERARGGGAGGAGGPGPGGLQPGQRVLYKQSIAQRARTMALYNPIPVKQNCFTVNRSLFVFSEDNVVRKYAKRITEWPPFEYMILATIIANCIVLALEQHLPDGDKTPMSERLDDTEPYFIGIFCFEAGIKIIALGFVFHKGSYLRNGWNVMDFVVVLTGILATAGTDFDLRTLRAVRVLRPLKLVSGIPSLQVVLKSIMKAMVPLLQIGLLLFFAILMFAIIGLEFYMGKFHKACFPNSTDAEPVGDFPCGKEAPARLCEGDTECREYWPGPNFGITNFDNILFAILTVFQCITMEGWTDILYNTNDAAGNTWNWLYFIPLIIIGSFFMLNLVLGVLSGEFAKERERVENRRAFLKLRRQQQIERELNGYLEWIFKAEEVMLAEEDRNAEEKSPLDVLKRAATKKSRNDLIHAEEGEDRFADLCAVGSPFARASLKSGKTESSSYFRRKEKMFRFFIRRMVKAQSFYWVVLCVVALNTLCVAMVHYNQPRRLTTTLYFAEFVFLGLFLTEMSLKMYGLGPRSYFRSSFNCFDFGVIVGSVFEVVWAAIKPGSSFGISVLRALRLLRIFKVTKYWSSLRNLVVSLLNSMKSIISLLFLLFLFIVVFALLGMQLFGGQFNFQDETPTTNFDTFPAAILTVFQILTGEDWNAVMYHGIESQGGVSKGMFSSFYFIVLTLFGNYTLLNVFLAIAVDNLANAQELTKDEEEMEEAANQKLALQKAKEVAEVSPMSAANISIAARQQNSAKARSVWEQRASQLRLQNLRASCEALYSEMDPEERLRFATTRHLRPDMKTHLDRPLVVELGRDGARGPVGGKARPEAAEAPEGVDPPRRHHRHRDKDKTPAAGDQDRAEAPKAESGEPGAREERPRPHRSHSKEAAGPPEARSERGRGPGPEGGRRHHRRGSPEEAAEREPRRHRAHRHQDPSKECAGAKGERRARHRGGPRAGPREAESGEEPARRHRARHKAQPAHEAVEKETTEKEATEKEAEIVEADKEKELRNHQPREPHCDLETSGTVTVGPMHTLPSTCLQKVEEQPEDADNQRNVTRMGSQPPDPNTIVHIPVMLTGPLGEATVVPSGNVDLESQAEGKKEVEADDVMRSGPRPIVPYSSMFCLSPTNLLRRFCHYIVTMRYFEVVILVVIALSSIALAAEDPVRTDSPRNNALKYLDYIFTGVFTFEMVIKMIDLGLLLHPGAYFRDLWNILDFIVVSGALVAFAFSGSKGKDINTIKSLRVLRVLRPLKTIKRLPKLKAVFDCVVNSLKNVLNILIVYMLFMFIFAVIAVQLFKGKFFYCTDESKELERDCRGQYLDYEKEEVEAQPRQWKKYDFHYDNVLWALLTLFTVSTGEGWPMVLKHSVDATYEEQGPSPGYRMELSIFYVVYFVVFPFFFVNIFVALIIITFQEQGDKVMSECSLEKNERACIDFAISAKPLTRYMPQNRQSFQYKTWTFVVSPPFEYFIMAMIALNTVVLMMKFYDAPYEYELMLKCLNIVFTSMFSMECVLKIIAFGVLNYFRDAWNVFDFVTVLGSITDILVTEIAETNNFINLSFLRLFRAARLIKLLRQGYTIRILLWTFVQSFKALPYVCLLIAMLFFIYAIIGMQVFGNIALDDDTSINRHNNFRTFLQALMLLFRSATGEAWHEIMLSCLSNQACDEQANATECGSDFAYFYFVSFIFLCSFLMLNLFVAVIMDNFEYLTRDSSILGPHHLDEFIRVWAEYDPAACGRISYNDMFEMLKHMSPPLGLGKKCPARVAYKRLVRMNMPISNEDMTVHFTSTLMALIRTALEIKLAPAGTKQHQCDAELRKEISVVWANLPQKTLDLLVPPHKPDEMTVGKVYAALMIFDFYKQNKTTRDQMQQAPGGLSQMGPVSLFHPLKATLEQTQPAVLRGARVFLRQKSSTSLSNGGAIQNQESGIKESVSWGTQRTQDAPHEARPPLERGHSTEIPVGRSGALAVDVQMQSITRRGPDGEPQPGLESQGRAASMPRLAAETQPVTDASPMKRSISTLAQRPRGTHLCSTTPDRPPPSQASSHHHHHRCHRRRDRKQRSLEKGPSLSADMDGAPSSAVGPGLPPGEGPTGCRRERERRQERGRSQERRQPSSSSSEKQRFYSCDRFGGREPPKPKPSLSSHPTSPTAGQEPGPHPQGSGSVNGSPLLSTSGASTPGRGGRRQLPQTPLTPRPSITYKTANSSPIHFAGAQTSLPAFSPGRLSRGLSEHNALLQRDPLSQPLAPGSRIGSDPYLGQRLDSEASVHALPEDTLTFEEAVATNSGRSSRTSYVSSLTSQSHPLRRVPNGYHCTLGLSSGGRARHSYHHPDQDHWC
T3 sequence (P54290 25-944 partner limits assumed, other chains not shown): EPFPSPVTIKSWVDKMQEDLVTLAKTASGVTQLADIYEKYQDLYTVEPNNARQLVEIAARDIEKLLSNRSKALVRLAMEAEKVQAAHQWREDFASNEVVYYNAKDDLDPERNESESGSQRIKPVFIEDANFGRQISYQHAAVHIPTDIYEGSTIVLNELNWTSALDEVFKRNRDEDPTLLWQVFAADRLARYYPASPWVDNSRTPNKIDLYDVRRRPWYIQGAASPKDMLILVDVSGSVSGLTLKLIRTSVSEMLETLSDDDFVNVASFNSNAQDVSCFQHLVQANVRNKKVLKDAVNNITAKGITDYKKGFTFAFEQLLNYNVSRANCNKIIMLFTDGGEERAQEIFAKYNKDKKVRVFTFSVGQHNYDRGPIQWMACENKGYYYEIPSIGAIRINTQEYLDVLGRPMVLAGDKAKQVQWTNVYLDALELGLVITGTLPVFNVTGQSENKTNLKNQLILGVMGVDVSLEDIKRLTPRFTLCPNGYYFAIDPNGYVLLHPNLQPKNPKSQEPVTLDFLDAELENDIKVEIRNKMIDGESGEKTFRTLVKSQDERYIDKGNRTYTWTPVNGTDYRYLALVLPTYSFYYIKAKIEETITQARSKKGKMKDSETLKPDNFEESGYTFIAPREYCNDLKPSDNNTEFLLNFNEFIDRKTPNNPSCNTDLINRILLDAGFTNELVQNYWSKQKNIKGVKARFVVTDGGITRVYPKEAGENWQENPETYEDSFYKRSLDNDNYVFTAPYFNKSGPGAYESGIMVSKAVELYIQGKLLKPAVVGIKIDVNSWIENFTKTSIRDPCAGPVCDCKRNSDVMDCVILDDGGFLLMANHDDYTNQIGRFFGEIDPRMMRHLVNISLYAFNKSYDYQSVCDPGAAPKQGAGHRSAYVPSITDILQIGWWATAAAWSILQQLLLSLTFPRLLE
T3 sequence (P54290 945-1091 partner limits assumed, other chains not shown): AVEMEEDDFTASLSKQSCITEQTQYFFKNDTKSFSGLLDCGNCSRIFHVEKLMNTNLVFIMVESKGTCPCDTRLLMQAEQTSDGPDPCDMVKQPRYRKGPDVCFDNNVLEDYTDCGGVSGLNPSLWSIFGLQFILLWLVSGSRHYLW
From the text: FIG. 3A illustrates an approach for N-type channels without Gβγ coexpression. Exemplar currents activated quickly and were barely facilitated by strong prepulse depolarization (FIG. 3A, left). The slight residual prepulse facilitation reflects basal endogenous Gβγ activation. To estimate open probability, two intermediary parameters were specified. First, to gauge the number of channels in a cell (Nchannel), the channel gating current at the reversal potential for ionic current were isolated (FIG. 3A, middle left) (Jones et al., 1999). The area under this current yields the maximal gating charge Qmax, where Qmax=Nchannel×qmax, and qmax is the maximal gating charge per channel. Second, Gmax for a given cell, the maximal ionic current conductance determined as the slope of the peak current-voltage relation at depolarized potentials were determined (FIG. 3A, middle right, line). Here and throughout, current-voltage relations were determined after a 100 mV prepulse, which transiently relieves all G protein inhibition (Colecraft et al., 2000), thus eliminating these inhibitory effects in the estimate of Gmax. Accordingly, Gmax=Nchannel×Po,max×g, where Po,max is the maximal channel open probability at saturating de-polarization, and g is the conductance of a single open channel. In combination, then, a plot of Gmax versus Qmax for multiple cells ([…]) would describe a linear relation with slope equal to Po,max×g/qmax. Because g and qmax are unchanged by G protein modulation (Colecraft et al., 2001; Jones et al., 1997; Patil et al., 1996), this slope (G/Q=0.44±0.03 nS/fC) is proportional to Po,max . . . FIG. 3B documents the supporting results for N-type channels coexpressed with Gβγ. Gmax determined after prepulse de-polarization, when plotted against Qmax, specifies an identical slope to that without Gβγ (FIG. 3B, right, G/Q=0.43±0.04 nS/fC). […] Free NTB peptide with α1B channels. Initially, an NTB-CFP peptide was employed to visually confirm expression was coexpressed. […] By contrast, coexpressing channels with NTB-CFP and Gβγ produced remarkable effects (FIG. 3D). […] More telling were small ionic current amplitudes despite gating current magnitudes on par with controls (FIG. 3D, middle panels). Consequently, there was a significant ^w6-fold depression of the Gmax-Qmax plot (FIG. 3D, right). If NTB-CFP were simply chelating Gβγ (FIG. 2C), the G/Q slope would be unchanged from control. Instead, the suppression of G/Q indicates constitutive inhibition of channel opening.
Cells were transiently transfected and cultured in 10 cm plates (Brody et al., 1997). For 2+Ca^2+ channels, 8 μg was used of each of cDNAs of the desired a1, rat brain β2a (Perez-Reyes et al., 1992), and rat brain a^28 (Tomlinson et al., 1993) subunits; along with 2 μg T-antigen cDNA. N-type α1B, human origin (NM000718); L-type α1C, rabbit (Wei et al., 1991) (X15539). Gβγ coexpressed with 4 μg each of Gβ1 (Sugimoto et al., 1985) and Gγ2 (Gautam et al., 1990). For coexpression of N-terminal peptides, channel subunit cDNA reduced to 6 μg, while adding 14 μg peptide cDNA. For receptor experiments, 0.5 μg cDNA for m2R (below) applied with other cDNAs.
Whole-cell current records were made with Axopatch 200B (Axon Instruments, Calif.), 1-3 days posttransfection. Pipets, 1.5-3 MΩ before 60-75% series resistance compensation. Internal solution: 135 mM CsMeSO4, 5 mM CsCl, 10 mM EGTA, 10 mM HEPES, 1 mM MgCl2, and 4 mM MgATP. External solution: 150 mM TEAMeSO4, 10 mM HEPES, 2 mM CaCl2, and 1 mM MgCl2. During constitutive inhibition (or as noted for some chimeras), 20 mM BaCl2 was substituted for 2 mM CaCl2, and the resulting solution was diluted 1.08×. To compare across external solutions, a conversion factor of 3.18 was used. Currents and conductances with 20 mM Ba^2+ were thus scaled×1/3.18 to facilitate uniform comparison of values, as if all data had been collected with 2 mM Ca^2+. When applied, conversion is denoted by asterisk (*). […]

NTC: NH3 terminus of L-type channel α1C subunit, free peptide [reference compound]
Interaction with I-IIB (yeast two-hybrid, ΔB) (I-II loop of α1B (I-IIB)): failed to reveal an association | Interaction with I-IIC (yeast two-hybrid) (I-II loop of α1C (I-IIC)): failed to reveal an association | Effect on G/Q slope (Gmax-Qmax relation), with Gβγ [1]: had no effect | Effect on G/Q slope and currents, without Gβγ ([1]; peptide coexpressed with channels, absent Gβγ): had no effect

B1: NTB: NH3 terminus of N-type channel α1B subunit, residues 1-95, expressed as free peptide (SEQ ID NO.: 1) (protein, listed as Homo sapiens)
chain: MVRFGDELGGRYGGPGGGERARGGGAGGAGGPGPGGLQPGQRVLYKQSIAQRARTMALYNPIPVKQNCFTVNRSLFVFSEDNVVRKYAKRITEWP
Interaction with I-IIB (yeast two-hybrid, ΔB) (I-II loop of α1B (I-IIB)): positive | Interaction with I-IIC (yeast two-hybrid) (I-II loop of α1C (I-IIC)): failed to reveal an association | DF (prepulse facilitation) [1]: 2.64±0.18 | Induction time of constitutive inhibition after receptor activation [1]: 10 to 15 min and ~10 min | Reversal of constitutive inhibition on removal of carbachol [1]: did not reverse inhibition | Functional profile with m2R, absent carbachol ([1]; channels + m2R + NTB peptide, 0 min CCH): indistinguishable from control N-type channels | G/Q slope with m2R and carbachol ([1]; channels + m2R + free NTB peptide, carbachol ≧30 min (50 μM CCH)): marked suppression of the G/Q slope | Conversion to constitutively reluctant channels ([1]; deduced from DF˜4 via FIG. 7B model, free NTB with Gβγ): ~75% | DF (degree of prepulse facilitation) ([1]; free NTB with Gβγ): ~4 | Effect on G/Q slope (Gmax-Qmax relation), with Gβγ [1]: identical to those obtained with NTB-CFP
